Assay results: the supplement of paper PMC10724198
± gives the standard deviation of the averaged measurements.

How the values were obtained:
Saccharomyces cerevisiae [1] = assay: protein stability index of tFT-peptide fusion (C-terminal peptide) (PSI (0-1 scale)); higher = more stable (slower turnover)
Description: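 MPS profiling in S. cerevisiae of the tFT-X12 degron library: putative degron peptides plus stable controls, 12 aa, fused to the C-terminus of a sfGFP-mCherry timer. Cells are FACS-sorted into 8 mCherry/sfGFP bins and deep-sequenced. PSI runs from 0 (unstable) to 1 (stable). Backgrounds are wild type, das1Δ and doa10Δ at 30 °C, and wild type, das1Δ, cdc34-1 and cdc53-1 at 37 °C; 2-3 technical replicates each.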

Saccharomyces cerevisiae [2] = assay: as above; conditions: genetic background: wild type; temperature: 30 C
[3] = genetic background: cdc34-1, temperature: 37 C
[4] = genetic background: cdc53-1, temperature: 37 C
[5] = genetic background: das1 deletion, temperature: 30 C
[6] = genetic background: das1 deletion, temperature: 37 C
[7] = genetic background: doa10 deletion, temperature: 30 C
[8] = genetic background: wild type, temperature: 30 C
[9] = genetic background: wild type, temperature: 37 C
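Also: PSI is a weighted mean of sequencing reads over stability bins, variants kept only with over 10 reads, mCherry proximal and sfGFP distal, peptide attached via GGGS linker.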

APPFPPPPARSL
protein stability index (Saccharomyces cerevisiae [1]; [3]): 0.644 ± 0.034
protein stability index (Saccharomyces cerevisiae [1]; [4]): 0.713 ± 0.0095
protein stability index (Saccharomyces cerevisiae [1]; [5]): 0.675 ± 0.019
protein stability index (Saccharomyces cerevisiae [1]; [6]): 0.718 ± 0.033
protein stability index (Saccharomyces cerevisiae [1]; [7]): 0.694 ± 0.022
protein stability index (Saccharomyces cerevisiae [1]; [8]): 0.68 ± 0.017
protein stability index (Saccharomyces cerevisiae [1]; [9]): 0.677 ± 0.015

RWRLWVGWGVVG
protein stability index (Saccharomyces cerevisiae [1]; [3]): 0.621 ± 0.034
protein stability index (Saccharomyces cerevisiae [1]; [4]): 0.688 ± 0.022
protein stability index (Saccharomyces cerevisiae [1]; [5]): 0.521 ± 0.0056
protein stability index (Saccharomyces cerevisiae [1]; [6]): 0.691 ± 0.039
protein stability index (Saccharomyces cerevisiae [1]; [7]): 0.425 ± 0.029
protein stability index (Saccharomyces cerevisiae [1]; [8]): 0.368 ± 0.078
protein stability index (Saccharomyces cerevisiae [1]; [9]): 0.533 ± 0.059

GGGGVFGVWVWM
protein stability index (Saccharomyces cerevisiae [1]; [3]): 0.533 ± 0.058
protein stability index (Saccharomyces cerevisiae [1]; [4]): 0.618 ± 0.018
protein stability index (Saccharomyces cerevisiae [1]; [5]): 0.511 ± 0.013
protein stability index (Saccharomyces cerevisiae [1]; [6]): 0.656 ± 0.0086
protein stability index (Saccharomyces cerevisiae [1]; [7]): 0.23 ± 0.017
protein stability index (Saccharomyces cerevisiae [1]; [8]): 0.272 ± 0.024
protein stability index (Saccharomyces cerevisiae [1]; [9]): 0.494 ± 0.014

VSVFWVFLLVAG
protein stability index (Saccharomyces cerevisiae [1]; [3]): 0.223 ± 0.0059
protein stability index (Saccharomyces cerevisiae [1]; [4]): 0.375 ± 0.011
protein stability index (Saccharomyces cerevisiae [1]; [5]): 0.245 ± 0.024
protein stability index (Saccharomyces cerevisiae [1]; [6]): 0.4401 ± 0.0035
protein stability index (Saccharomyces cerevisiae [1]; [7]): 0.189 ± 0.012
protein stability index (Saccharomyces cerevisiae [1]; [8]): 0.218 ± 0.024
protein stability index (Saccharomyces cerevisiae [1]; [9]): 0.383 ± 0.016

GAQQRVKERYIE
protein stability index (Saccharomyces cerevisiae [1]; [3]): 0.648 ± 0.012
protein stability index (Saccharomyces cerevisiae [1]; [4]): 0.721 ± 0.027
protein stability index (Saccharomyces cerevisiae [1]; [5]): 0.636 ± 0.028
protein stability index (Saccharomyces cerevisiae [1]; [6]): 0.7346 ± 0.0027
protein stability index (Saccharomyces cerevisiae [1]; [7]): 0.6157 ± 0.0038
protein stability index (Saccharomyces cerevisiae [1]; [8]): 0.646 ± 0.03
protein stability index (Saccharomyces cerevisiae [1]; [9]): 0.741 ± 0.00086

PACPPLPPRSPS
protein stability index (Saccharomyces cerevisiae [1]; [3]): 0.634 ± 0.0068
protein stability index (Saccharomyces cerevisiae [1]; [4]): 0.7142 ± 0.0047
protein stability index (Saccharomyces cerevisiae [1]; [5]): 0.693 ± 0.028
protein stability index (Saccharomyces cerevisiae [1]; [6]): 0.737 ± 0.017
protein stability index (Saccharomyces cerevisiae [1]; [7]): 0.688 ± 0.069
protein stability index (Saccharomyces cerevisiae [1]; [8]): 0.7 ± 0.015
protein stability index (Saccharomyces cerevisiae [1]; [9]): 0.7 ± 0.024

DNTYRIDIKNKQ
protein stability index (Saccharomyces cerevisiae [1]; [3]): 0.764 ± 0.093
protein stability index (Saccharomyces cerevisiae [1]; [4]): 0.771 ± 0.04
protein stability index (Saccharomyces cerevisiae [1]; [5]): 0.641 ± 0.019
protein stability index (Saccharomyces cerevisiae [1]; [6]): 0.689 ± 0.0069
protein stability index (Saccharomyces cerevisiae [1]; [7]): 0.4753 ± 0.0045
protein stability index (Saccharomyces cerevisiae [1]; [8]): 0.466 ± 0.013
protein stability index (Saccharomyces cerevisiae [1]; [9]): 0.6553 ± 0.00098

HSAIFLFFFFFG
protein stability index (Saccharomyces cerevisiae [1]; [3]): 0.283 ± 0.11
protein stability index (Saccharomyces cerevisiae [1]; [4]): 0.4553 ± 0.0042
protein stability index (Saccharomyces cerevisiae [1]; [5]): 0.314 ± 0.022
protein stability index (Saccharomyces cerevisiae [1]; [6]): 0.444 ± 0.03
protein stability index (Saccharomyces cerevisiae [1]; [7]): 0.331 ± 0.051
protein stability index (Saccharomyces cerevisiae [1]; [8]): 0.296 ± 0.024
protein stability index (Saccharomyces cerevisiae [1]; [9]): 0.401 ± 0.034

VGGREVSRAGGG
protein stability index (Saccharomyces cerevisiae [1]; [3]): 0.62 ± 0.048
protein stability index (Saccharomyces cerevisiae [1]; [4]): 0.672 ± 0.0081
protein stability index (Saccharomyces cerevisiae [1]; [5]): 0.49 ± 0.027
protein stability index (Saccharomyces cerevisiae [1]; [6]): 0.578 ± 0.06
protein stability index (Saccharomyces cerevisiae [1]; [7]): 0.477 ± 0.0076
protein stability index (Saccharomyces cerevisiae [1]; [8]): 0.481 ± 0.011
protein stability index (Saccharomyces cerevisiae [1]; [9]): 0.534 ± 0.041

AFYQSGGLVVVV
protein stability index (Saccharomyces cerevisiae [1]; [3]): 0.618 ± 0.043
protein stability index (Saccharomyces cerevisiae [1]; [4]): 0.617 ± 0.016
protein stability index (Saccharomyces cerevisiae [1]; [5]): 0.459 ± 0.034
protein stability index (Saccharomyces cerevisiae [1]; [6]): 0.6279 ± 0.0048
protein stability index (Saccharomyces cerevisiae [1]; [7]): 0.45 ± 0.016
protein stability index (Saccharomyces cerevisiae [1]; [8]): 0.477 ± 0.024
protein stability index (Saccharomyces cerevisiae [1]; [9]): 0.591 ± 0.046

FFFWLLCAGWLL
protein stability index (Saccharomyces cerevisiae [1]; [3]): 0.661 ± 0.01
protein stability index (Saccharomyces cerevisiae [1]; [4]): 0.622 ± 0.012
protein stability index (Saccharomyces cerevisiae [1]; [5]): 0.544 ± 0.044
protein stability index (Saccharomyces cerevisiae [1]; [6]): 0.656 ± 0.0071
protein stability index (Saccharomyces cerevisiae [1]; [7]): 0.551 ± 0.041
protein stability index (Saccharomyces cerevisiae [1]; [8]): 0.534 ± 0.0081
protein stability index (Saccharomyces cerevisiae [1]; [9]): 0.649 ± 0.0073

GRTDFSTLLLIC
protein stability index (Saccharomyces cerevisiae [1]; [3]): 0.491 ± 0.016
protein stability index (Saccharomyces cerevisiae [1]; [4]): 0.6912 ± 0.0053
protein stability index (Saccharomyces cerevisiae [1]; [5]): 0.564 ± 0.018
protein stability index (Saccharomyces cerevisiae [1]; [6]): 0.683 ± 0.019
protein stability index (Saccharomyces cerevisiae [1]; [7]): 0.106 ± 0.012
protein stability index (Saccharomyces cerevisiae [1]; [8]): 0.132 ± 0.039
protein stability index (Saccharomyces cerevisiae [1]; [9]): 0.16 ± 0.056

NAAVQSGGRVAG
protein stability index (Saccharomyces cerevisiae [1]; [3]): 0.67 ± 0.043
protein stability index (Saccharomyces cerevisiae [1]; [4]): 0.722 ± 0.05
protein stability index (Saccharomyces cerevisiae [1]; [5]): 0.638 ± 0.01
protein stability index (Saccharomyces cerevisiae [1]; [6]): 0.733 ± 0.0013
protein stability index (Saccharomyces cerevisiae [1]; [7]): 0.645 ± 0.025
protein stability index (Saccharomyces cerevisiae [1]; [8]): 0.646 ± 0.0076
protein stability index (Saccharomyces cerevisiae [1]; [9]): 0.696 ± 0.016

LPPHSASLSSSF
protein stability index (Saccharomyces cerevisiae [1]; [3]): 0.701 ± 0.054
protein stability index (Saccharomyces cerevisiae [1]; [4]): 0.7591 ± 0.0059
protein stability index (Saccharomyces cerevisiae [1]; [5]): 0.635 ± 0.029
protein stability index (Saccharomyces cerevisiae [1]; [6]): 0.725 ± 0.011
protein stability index (Saccharomyces cerevisiae [1]; [7]): 0.665 ± 0.015
protein stability index (Saccharomyces cerevisiae [1]; [8]): 0.675 ± 0.022
protein stability index (Saccharomyces cerevisiae [1]; [9]): 0.704 ± 0.013

IVADKSPLSSPP
protein stability index (Saccharomyces cerevisiae [2]): 0.6947 ± 0.0017
